Reference: the nanobody polyreactivity screen of Harvey et al. (2022)

Experiment: yeast display, Sf9 membrane polyspecificity reagent, FACS + sequencing; frameworks hold sequencing errors
Procedure, shortened: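 Synthetic nanobody libraries on Saccharomyces cerevisiae BJ5465 were galactose-induced for 36–48 hours, stained 1 hour at 4 °C with 10% biotinylated, detergent-solubilized Sf9 membrane reagent and enriched on streptavidin microbeads. FACS then separated cells into low and high (top ~1%) gates by anti-HA (expression) and streptavidin (reagent binding) fluorescence. Genes were colony-PCR amplified, MiSeq 2 × 250 sequenced and CDR-length filtered. A clone's polyreactivity label is that of its gate of origin.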

Sequence	polyreactivity (PSR sort gate)
QVQLVESGGGLVQAGGSLRLSCAASGSTFKIYARGWYRQAPGKERELVARITGRGGSTYYADSVKGRFTISRDNAKNTVYLQMNSLKPEDTAVYYCAARVYTYYYDLHKRYYWGQGTQVTVSS	high polyreactivity
HVQLVESGGGLVQAGGSLRLSCAASGSNFDKYAMGGYRQAPGKERELGAAISRGGSSTYYADSVKGRFTISRDNAKNTVYLQMNSLKPEDTAVYYCAARIRNWPAMDYWGQGTQVTVSS	high polyreactivity
QVQLVESGGGLVQAGGSLRLSCAASGSILPLYAMGWYRQAPGKERELVATISNAGSTTYADSVKGRFTISRDNAKNTVYLQMNSLKPEDTAVYYCNAESEWGWVYVGYDYWGQGTQVTVSS	low polyreactivity
QVQLVESGGGLVQAGGSLRLSCAASGRIFGKYAMGWYRQAPGKEWELVAAISSSGGSTYYADSVKGRFTISRDNAKNTVYLQMNSLKPEDTAVYYCNAPQYWRRSYREYDYWGQGTQVTVSS	high polyreactivity
QVQLVESGGGLVQAGGSLRLSCAASGFIFGSYTMGWYRQAPGKERELVAAITTGGSTNYADSVKGRFTISRDNAKNTVYLQMNSLKPEDTAVYYCNAVWYYRGNPDIYGGLDYWGQGTQVTVSS	low polyreactivity
QVQLVESGGGLVQAGGSLRLSCAASGFTFAGYAMGWYRQAPGKERELVAGIRSSGARTNYADSVKGRFTISRDNAKNTVYLQMNSLKPEDTAVYYCNAVRTLYIWWPGYYYWGQGTQVTVSS	low polyreactivity
QVQLVESGGGLVQAGGSLRLSCDASGRIIAFYVMGWYRQAPGKERELVAAITSGGNTNYADSVKGRFTISRDNAKNTVYLQMNSLKPEDTAVYYCAVPVLTYVSDYYWGQGTQVTVSS	low polyreactivity
QVQLVESGGGLVQAGGSLRLSCAASGRTSVLYAMGWYRQAPWKEREFVAAITWNSGSTYYADSVKGRFTISRDNAKNTVYLQMNSLKPEDTAVYYCNADYYFSSYRSTYDYWGQGTQVTVSS	low polyreactivity
QVQLVESGGGLVQAGGSLRLSCAASGRIFSKYAMGWYRQAPGKERELVAAITYSGGSTYYADSVKGRFTISRDNAKNTVYLQMNSLKPEDTAVYYCAAVHGTSYSKWFGYWGQGTQVTVSS	low polyreactivity
QVQLVESGGALVQAGGSLRLSCAASGSIFPANPMGWYRQAPGKEWEFVAAINWSTGTTYYADSVKGRFTISRDNGKNTVYLQMNSLKPEDTAVYYFNASDQAKYDYWGQGTQVTVSS	low polyreactivity
QVQLVESGGGLVQAGGILRLSCASSGRIFTRYAMGWYRPAPGKEREFVAAINYRGSSTYYADSVKGRFTISRDNAKNTVYLQMNSLKPEETAVDYCNTYGQTDTYWRYYYWGQGTQVTVSS	high polyreactivity
QVQLVESAGGLVQAGGSLSLSCDASGNTFLGYAMGWYRQAPGKERELVAAISKRGGSTYYADSVKGRFTISRDNAKNTVYLQMNSLQPEDTAVYYCNAVPPRDNGSWGQGTQVTVSS	high polyreactivity
QVQLVESGGGLVQAGGSLRLSCAASGSIFFNNAMGWYRQAPGKERELVAAITTGGSTYYADSVKGRFTISRDNAKNTVYLQMNSLKPEDTAVYYCAAVVVYPYRLGYDYWGQGTQVTVSS	low polyreactivity
QVQLVESGGGLVQAGGSLRLSCAASGSTFYYNAMGWYRQAPGKERELVATISGGGTTYYADSVKGRFTISRDNAKNSVYLQMISLKPEDTAVYYCATDWHIEYLYRKVHGRKHDYWGQGTQVTVSS	low polyreactivity
QVQLVESGGGLVQAGGSLRLSCAASGSTFHNYAMGWYRQAPGKERELVAGISVRGGGTYYADSVKGRFTISRDNAKNNVYLQMNSLKPEDTAVYYCAKRSRYYYRYDYWGQGSQVTVSS	high polyreactivity
QVQLVESGGGLVQAGGSLRLSCAASGSTFQVYGMGWYRQAPGKERELGAAISRSGGRTYYADSVKGRFTISRDNAKNTVYLQMNSLKPEDTAVYYCNAPISYYDEYYYWGQGTQVTVSS	high polyreactivity
QVQLVESGGGLVQAGGTLRLSCAASGFTFLDYAMGWYRQAPGKERELVATINWSDVSTYYADSVKGRFTISRDTAKNTVYLQINSLKPEDTAVYYSAVDVLTVGQSNDHWGQGTQVTVSS	high polyreactivity
